Laboratory results from paper doi:10.1101/2024.12.06.626481 (bioRxiv, 2024).

Target: murine IL-21 (mIL-21) (murine, UniProt Q9ES17 18-146)
Experiment: BLI

B1: biotinylated murine IL-21 receptor (mIL-21R) (receptor)
chain: not shown
modifications: biotinylated (site not stated)
Q: Does B1 bind?
A: binds
